Here are results for 3 molecules from US11421026B2, “Antibodies that bind human cannabinoid 1 (CB1) receptor” (BIRD ROCK BIO, Inc., priority 2015, dated 2022).

For orientation: EC50 means the midpoint of the concentration-response curve.

The target of assay [1] is T1, human CB2 (TRex CHO cells) (Homo sapiens, UniProt P34972).
T1 construct: expressed in transfected cells
Briefly: Flow cytometry selectivity versus human CB2. The format is binding. Here is the method: (§1) To further assess TRex CHO parental cells, TRex CHO A56 overexpressed CB1, Native human CB1 TRex CHO A156, 5HT2B, Mouse CB1 and human CB2 were used to examine the specificity of IgG binding. 100 μl of 1×10^6 cells/ml of cells were incubated with primary antibody IgGs in 3-fold serial dilutions starting from 1 μM to 0.5 nM for 30 minutes on ice. After being washed with 200 μl of FACS buffer twice, cells were incubated with secondary antibody for 30 minutes on ice. Cells were washed with 200 μl of FACS buffer twice and transferred to BD Falcon 5 ml tube and analyzed by FACS.
Santa Cruz anti-CB1 rabbit polyclonal antibody and secondary antibody FITC conjugated anti-rabbit were used to detect the expression of mouse CB1. R&D mouse monoclonal anti-CB2 and human IgG P2C2 were used to confirm the expression of CB2 and 5HT2B respectively. Both anti-mouse and anti-human secondary antibodies were PE-conjugated.
For selected binders, full binding curves were generated on CB1 receptor by testing a range of concentrations. Three-fold serial dilutions from 1 μM to […] were prepared. Selectivity was determined by measuring binding to cells expressing 5HT2B or CB2, relative to binding to A156 (native human CB1 receptor expressing) or A56 (overexpressed—CB1 receptor with the T210A modification and ICL3 replacement with fusion partner) by flow cytometry. As shown in FIG. 2C and FIG. 2D, the expression of CB2 and 5HT2B was confirmed using mouse monoclonal anti-CB2 and P2C2 human IgG to confirm CB2 and 5HT2B expression, respectively. PE-conjugated anti-mouse (for detection of anti-CB2) and PE conjugated anti-human antibodies were used to detect CB2 and 5HT2B, respectively.
The binding affinity, cross-reactivity and specificity of humanized P1C4 antibodies were determined by flow cytometry with TRex CHO parental cells, TRex CHO A56 overexpressed CB1 cells (T210A/fusion partner), native human CB1 TRex CHO A156 cells, Trex parental (no CB1) cells, mouse CB1 cells, and human CB2 stable cells. […] After being washed with 200 μl of FACS buffer twice, cells were incubated with PE conjugated anti-human secondary antibody (Southern Biotech) for 30 minutes on ice. Cells were washed with 200 μl of FACS buffer twice and transferred to BD Falcon 5 ml tube and analyzed by flow cytometry (BD FACScalibur).
Binding selectivity and cross-reactivity of PA13R3-P1C4 and its humanized variants was also characterized by flow cytometry using TRex CHO cells stably transfected with the GPCRs of interest. Specifically, binding selectivity for CB1 over CB2 was determined. Cross reactivity to mouse CB1 was also determined. […] Cells were washed with 200 μL FACS buffer twice and analyzed by flow cytometry (Guava). Binding of purified IgG full concentration curves ranging from 1 μM to 1.3 nM was determined. […]

The target of assay [2] is T2, Native human CB1 TRex CHO A156 (Homo sapiens, UniProt P21554).
T2 construct: pcDNA4/TO native full length human CB1 receptor construct was transfected into tetracycline inducible system Trex-CHO cells; expressed in transfected cells
The experiment in a line: Flow cytometry (FACS) binding to native human CB1 cells. The protocol:
(§2) TRex CHO parental cells, TRex CHO A56 over-expressed CB1 (CB1 T210A/fusion partner), and Native human CB1 TRex CHO A156 were harvested from flasks. 100 μl of 1×10^6 cells/ml of cells were incubated with primary antibody IgGs. Secondary Antibody PE conjugated anti-human and anti-mouse was diluted in 1:200 folds. Anti-Human Fab FITC was diluted in 1:32 folds. Cells were washed with 200 μl of FACS buffer twice and transferred to BD 5 ml Falcon tube and analyzed by flow cytometry. Binding of purified IgG was initially tested at concentrations of 30 nM and 300 nM.
as §1
(§3) For selected binders, full binding curves were generated on CB1 receptor by testing a range of concentrations. Three-fold serial dilutions from 1 μM to […] were prepared. Selectivity was determined by measuring binding to cells expressing 5HT2B or CB2, relative to binding to A156 (native human CB1 receptor expressing) or A56 (overexpressed—CB1 receptor with the T210A modification and ICL3 replacement with fusion partner) by flow cytometry. […]
(§4) The binding affinity, cross-reactivity and specificity of humanized P1C4 antibodies were determined by flow cytometry with TRex CHO parental cells, TRex CHO A56 overexpressed CB1 cells (T210A/fusion partner), native human CB1 TRex CHO A156 cells, Trex parental (no CB1) cells, mouse CB1 cells, and human CB2 stable cells. […] Cells were washed with 200 μl of FACS buffer twice and transferred to BD Falcon 5 ml tube and analyzed by flow cytometry (BD FACScalibur).
For orientation: A flow cytometer gives signals particle by particle.

For assay [3], the target named is A138 iCAPS (human CB1, ICL3 replaced with protein 1 sequence). The experiment in a line: ELISA binding of IgG/Fab to CB1 iCAPS A138. The conditions noted are these: IgG and Fab ELISA, Table 8. Here is the method: (§5) Purified IgG was tested for binding to purified CB1 receptor (CB1 Conformation Antigen Presenting System (iCAPS)) by ELISA. Non-biotinylated antigens (e.g. empty iCAPS) were coated directly on Maxisorp plates. The primary antibodies were purified IgGs with 1:3 serial dilutions, incubated on the plate for 1 hour. After 3 rounds of washing with PBST, secondary antibodies HRP goat anti-mouse IgG (Abmart) or HRP goat anti-human IgG (Sigma), depending on the species of the IgGs were added and incubated for another hour. The plates were washed three times with PBST, then developed with TMB (Biopanda). HCl was added to the plates to stop the reaction. Absorbance at 450 nm was read on Emax precision microplate reader (Molecular Devices).
(§6) IgG and Fab molecules tested were 36E12B6C2 IgG, 36E12B6C2 Fab, PA13R3-P1C4 IgG, and PA13R3-P1C4 Fab, compared to negative control BRIL binder P1F7 IgG and P1F7 Fab. For IgG antibodies, the secondary antibody used to detect binding was anti-mouse IgG-HRP; for Fabs, the secondary antibody used to detect binding was anti-human IgG-HRP.
(In an ELISA, binding on a coated surface is turned into a signal by an enzyme label.)

The target in assay [4] is A139 iCAPS (human CB1, ICL3 replaced with BRIL). The experiment in a line: ELISA binding of IgG/Fab to CB1 iCAPS A139. The conditions noted are these: IgG and Fab ELISA, Table 8. The protocol: as §5, §6
Assay [5] concerns TRex CHO A56 over-expressed CB1 (CB1 T210A/fusion partner). Briefly: Flow cytometry (FACS) binding to over-expressed CB1 cells. Set-up: species or system human. Here is the method: as §2, §1, §3, §4

B1: 36E12B6C2: hybridoma-derived anti-CB1 mAb; HC variable SEQ ID NO: 18, LC variable SEQ ID NO: 22 (antibody, listed as Mus sp., V domains shown)
VH: QVQLQQSGAELVRPGSSVKISCKASGYEFSYYWMNWVKQRPGQGLQWIGQIYPGDGDTNYNGKFKGKATLTADKSSSTAYMHLTSLTSEDSAVYFCARSGGNPFAFWGQGTLVTVSA
VL: DIQMTQTSSSLSASLGDRVTFSCRASQDISNYLNWYQQKPDGTVKLLIYYTSRLHSGVTSRFRGSGSGTDYSLTISNLEQEDVATYFCQQGHTLPWSFGGGTKLEIK
On to B1, for which the “cross-activity with human CB2” value in assay [1] is listed as “do not have cross-activity”. The “binding to A156 (in words)” value in assay [2] is “bind to both A56 and A156”. Besides, the EC50 in assay [3] came out at 201 pM; in assay [4], 190 pM. Moreover, the “binding to A56 (in words)” value in assay [5] was “bind to both A56 and A156”.

B2: PA13R3-P1C4: phage-derived chimeric anti-CB1 IgG; HC variable SEQ ID NO: 2, LC variable SEQ ID NO: 6 (antibody, V domains shown)
VH: EVQLQQSGAELVRPGVSVKISCKASGYEFSYYWMNWVKQRPGQGLEWIGQIYPGDGETKYNGKFKGKATLTADKSSNTAYMQLSSLTSEDSAVYFCARSHGNYLPYWGQGTLVTVSA
VL: DIVLTQSPAIMSASLGERVTMTCTASSSVSSSYLHWYQQKPGSSPKLWIYSTSNLASGVPARFSGSGSGTSYSLTISSMEAEDAATYYCHQYHRSPPTFGAGTKLELK
modifications: PA13R3-P1C4 Heavy chain variable region; PA13R3-P1C4 Light chain variable region
As to B2, the “cross-activity with human CB2” value in assay [1] is given as “do not have cross-activity”. Further, in assay [1] (Table 10), the “Kd TRexCHO Human CB2” value is given as “No binding”. Besides, the “binding to A156 (in words)” value in assay [2] was “bind to both A56 and A156”. The EC50 in assay [3] and in assay [4] was 170 pM each time. Moreover, the “binding to A56 (in words)” value in assay [5] is “bind to both A56 and A156”.

B3: PA13R3-P1C4 Fab: Fab fragment of chimeric PA13R3-P1C4 (antibody, V domains shown)
VH: B2 VH
VL: B2 VL
In the case of B3, the “cross-activity with human CB2” value in assay [1] is on record as “do not have cross-activity”. In addition, the “binding to A156 (in words)” value in assay [2] is “bind to both A56 and A156”. For the same molecule, the results for the concentration for a half-maximal effect (EC50) in assay [3] and in assay [4] were 230 pM and 270 pM, respectively. Besides, the “binding to A56 (in words)” value in assay [5] is “bind to both A56 and A156”.
